Here are results for 16 substances from US11358986B2, “IL-2RBETA binding compounds” (MEDIKINE, INC., priority 2018, dated 2022).

One assay has as its target T1, IL-2Rγc subunit (Homo sapiens, UniProt P31785).
T1 construct: Fc; purchased ACRObiosystems, Inc. ILG-H5256
T1 sequence (P31785 23-254): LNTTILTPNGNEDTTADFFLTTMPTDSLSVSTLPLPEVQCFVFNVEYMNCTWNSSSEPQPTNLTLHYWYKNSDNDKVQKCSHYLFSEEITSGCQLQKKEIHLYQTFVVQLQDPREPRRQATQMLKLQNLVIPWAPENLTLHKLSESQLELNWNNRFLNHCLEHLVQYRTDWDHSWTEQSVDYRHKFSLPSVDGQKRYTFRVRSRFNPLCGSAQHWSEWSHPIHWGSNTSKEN
Put plainly: Competitive binding of synthetic test peptides against phage clones on IL-2Rγc. As to conditions: for Competition with phage clone peptide SEQ ID NO: 198: phage clone of IL-2Rγc family 1A; for Competition with phage clone peptide SEQ ID NO: 224: phage clone of IL-2Rγc family 1B; for Competition with phage clone peptide SEQ ID NO: 236: phage clone of IL-2Rγc family 2; for Competition with phage clone peptide SEQ ID NO: 248 or 1051: phage clone of IL-2Rγc family 3; for Competition with phage clone peptide SEQ ID NO: 266: phage clone of IL-2Rγc family 4; for Competition with phage clone peptide SEQ ID NO: 948: phage clone of IL-2Rγc family 5. As for the experimental part:
(§1) Competitive binding assays were performed to characterize the IL-2R binding sites for certain IL-2Rβ and to IL-2Rγc ligands.
(§2) Phage binding to the immobilized IL-2Rβ ECD was detected by staining with antibody against phage coat proteins (anti-phage Ab), staining with labeled secondary antibody against the anti-phage Ab, and scored by reading OD in the microtiter plate optical reader.
(§3) The ELISA signal for each phage binding in the presence and absence of the test peptides was compared to determine which synthetic peptides competed with which phage peptides for binding to the IL-2Rβ subunit.
A similar study was performed to evaluate the binding of IL-2Rγc ligands.

Assay [1] concerns the target T2, extracellular domain (ECD) of IL-2Rβ (Homo sapiens, UniProt P14784).
T2 construct: Fc; purchased ACRObiosystems, Inc. ILB-H5253
T2 sequence (P14784 27-239): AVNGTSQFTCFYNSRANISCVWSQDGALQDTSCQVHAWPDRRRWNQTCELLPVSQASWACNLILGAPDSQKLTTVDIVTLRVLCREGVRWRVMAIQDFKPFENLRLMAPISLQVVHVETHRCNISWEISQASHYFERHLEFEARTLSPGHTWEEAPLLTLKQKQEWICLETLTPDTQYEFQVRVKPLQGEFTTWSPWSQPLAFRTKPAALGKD
Put plainly: Competitive binding of synthetic test peptides against phage clones on immobilized IL-2Rβ ECD. The note with it: for Competition with phage clone peptide SEQ ID NO: 58: phage clone of IL-2β family 1; for Competition with phage clone peptide SEQ ID NO: 170: phage clone of IL-2β family 2A; for Competition with phage clone peptide SEQ ID NO: 83: phage clone of IL-2β family 2B; for Competition with phage clone peptide SEQ ID NO: 1034 or 1084: phage clone of IL-2β family 2C; for Competition with phage clone peptide SEQ ID NO: 1044: phage clone of IL-2β family 4. As to the method:
as §1
Representative phage clones displaying peptides from IL-2Rβ ligand families were bound to the extracellular domain (ECD) of IL-2Rβ immobilized in microtiter wells. Phage binding was conducted in the presence and absence of synthetic test peptides to determine if phage peptides and test peptides competed for binding to the same sites on IL-2Rβ. Synthetic test peptides were selected to represent peptides from IL-2Rβ ligand families, as well positive and negative control peptides.
as §2, §3

The test system of the next assay is NK-92 cells. The experiment in a line: STAT5 phosphorylation in NK-92 cells. Format: cell-based, human. The note with it: Western Blot, 0.1, 1 and 10 μM, 30 min. On the technique in general: Immunoblotting shows a protein as a band on a membrane.

Ends that are not written are not given here.

Description for NK-92 cells: NK-92 cells were seeded in a 24-well plate at 4×10^5 cells, in 1 mL starvation medium (SM), and incubated overnight at 37° C., 5% CO2. The starvation medium contained RPMI 1640+20% FBS+2 mM L-glutamine+1 mM NaPyr+10 mM HEPES+0.1 mM BME (no rhIL-2 supplement).
Treatment mixtures were of 1 pg/mL Anti-hIL-2 neutralizing antibody (0.2 mg/mL stock) or goat IgG control (1 mg/mL stock) were prepared.
The treatment mixtures and the antibody mix were added to the cells for 30 min at 37° C., 5% CO2. Each sample was then transferred to a 1.5 mL microfuge tube and spun down at 1,500 RPM for 5 minutes. The cells were washed in 1 mL PBS and centrifuged again.
A phosphatase and protease inhibitor cocktail (Thermo #78442) were added to mPER buffer at a 1:100 dilution. After the cells were pelleted, 50 μL of mPER buffer was added to each sample and pipetted repeatedly to homogenize.
The lysates were centrifuged at 14,000 RPM for 5 min at RT. The supernatants were transferred to clean tubes and stored frozen at −80° C.
The treatment reagents included Anti-STAT5 Antibody (rabbit), Cell Signaling No. 94205S; Anti-pSTAT5 Antibody (rabbit), Cell Signaling No. 4322S; and Goat anti-rabbit IgG-HRP, Jackson Immunoresearch No. 111-035-144.

As to 58 (YDCRIAQVGELCDL) [Peptide 58], in the assay with IL-2Rγc subunit, the “Competition with phage clone peptide SEQ ID NO: 198” value is recorded as “−”, the “Competition with phage clone peptide SEQ ID NO: 224” value was “−”, the “Competition with phage clone peptide SEQ ID NO: 236” value was “−” and the “Competition with phage clone peptide SEQ ID NO: 248 or 1051” value is listed as “−”. For the same substance, in the assay with IL-2Rγc subunit, the “Competition with phage clone peptide SEQ ID NO: 266” value was “−” and the “Competition with phage clone peptide SEQ ID NO: 948” value was “−”. Moreover, in assay [1], the “Competition with phage clone peptide SEQ ID NO: 58” value is “+^1 (Peptide competes with phage binding.)”, the “Competition with phage clone peptide SEQ ID NO: 170” value is “+ (Peptide competes with phage binding.)”, the “Competition with phage clone peptide SEQ ID NO: 83” value is recorded as “+ (Peptide competes with phage binding.)” and the “Competition with phage clone peptide SEQ ID NO: 1034 or 1084” value is listed as “+ (Peptide competes with phage binding.)”. In addition, in assay [1], the “Competition with phage clone peptide SEQ ID NO: 1044” value is “−”.

For 58 (YDCRIAQVGELCDL) [compound 58], the “competition for binding to the binding site of the IL-2Rγc subunit with the group of IL-2Rγc ligands” value with IL-2Rγc subunit is “does not compete”.

Consider 169 (NMCLVGDYWPSCQI) [Peptide 169], for which, in assay [1], the “Competition with phage clone peptide SEQ ID NO: 58” value is listed as “+ (Peptide competes with phage binding.)”, the “Competition with phage clone peptide SEQ ID NO: 170” value was “+ (Peptide competes with phage binding.)”, the “Competition with phage clone peptide SEQ ID NO: 83” value is on record as “+ (Peptide competes with phage binding.)” and the “Competition with phage clone peptide SEQ ID NO: 1034 or 1084” value is “+ (Peptide competes with phage binding.)”. In addition, the “Competition with phage clone peptide SEQ ID NO: 1044” value in assay [1] was “−”.

In the case of 202 (RTCTEWENVVLCWV) [Peptide 202], in the assay with IL-2Rγc subunit, the “Competition with phage clone peptide SEQ ID NO: 198” value is on record as “+^1 (Peptide competes with phage binding.)”, the “Competition with phage clone peptide SEQ ID NO: 224” value is “+ (Peptide competes with phage binding.)”, the “Competition with phage clone peptide SEQ ID NO: 236” value is given as “+ (Peptide competes with phage binding.)” and the “Competition with phage clone peptide SEQ ID NO: 248 or 1051” value is recorded as “+ (Peptide competes with phage binding.)”. In the assay with IL-2Rγc subunit, the “Competition with phage clone peptide SEQ ID NO: 266” value was “+ (Peptide competes with phage binding.)” and the “Competition with phage clone peptide SEQ ID NO: 948” value is given as “−”.

As for 224 (DCSMWEGVELCW) [Peptide 224], in the assay with IL-2Rγc subunit, the “Competition with phage clone peptide SEQ ID NO: 198” value was “+ (Peptide competes with phage binding.)”, the “Competition with phage clone peptide SEQ ID NO: 224” value is reported as “+ (Peptide competes with phage binding.)”, the “Competition with phage clone peptide SEQ ID NO: 236” value is on record as “+ (Peptide competes with phage binding.)” and the “Competition with phage clone peptide SEQ ID NO: 248 or 1051” value is on record as “+ (Peptide competes with phage binding.)”. In the assay with IL-2Rγc subunit, the “Competition with phage clone peptide SEQ ID NO: 266” value was “+ (Peptide competes with phage binding.)” and the “Competition with phage clone peptide SEQ ID NO: 948” value is “−”. In addition, in assay [1], the “Competition with phage clone peptide SEQ ID NO: 58” value is “−”, the “Competition with phage clone peptide SEQ ID NO: 170” value was “−”, the “Competition with phage clone peptide SEQ ID NO: 83” value is on record as “−” and the “Competition with phage clone peptide SEQ ID NO: 1034 or 1084” value is on record as “−”. For the same substance, in assay [1], the “Competition with phage clone peptide SEQ ID NO: 1044” value was “−”.

224 (DCSMWEGVELCW) [compound 224]: the “competition for binding to the binding site of the IL-2Rβ subunit with the group of IL-2Rβ ligands” value (“competition for binding … of IL-2Rβ ligands” below) in assay [1] was “does not compete”.

For the substance 236 (MCWLEWGEWVGSCL) [Peptide 236], in the assay with IL-2Rγc subunit, the “Competition with phage clone peptide SEQ ID NO: 198” value is reported as “+ (Peptide competes with phage binding.)”, the “Competition with phage clone peptide SEQ ID NO: 224” value is reported as “+ (Peptide competes with phage binding.)”, the “Competition with phage clone peptide SEQ ID NO: 236” value was “+ (Peptide competes with phage binding.)” and the “Competition with phage clone peptide SEQ ID NO: 248 or 1051” value is reported as “+ (Peptide competes with phage binding.)”. In the assay with IL-2Rγc subunit, the “Competition with phage clone peptide SEQ ID NO: 266” value is on record as “+ (Peptide competes with phage binding.)” and the “Competition with phage clone peptide SEQ ID NO: 948” value is given as “−”.

As for 948 (SLLKCYNASTCASVF) [Peptide 948], in the assay with IL-2Rγc subunit, the “Competition with phage clone peptide SEQ ID NO: 198” value is reported as “−^2”, the “Competition with phage clone peptide SEQ ID NO: 224” value was “−”, the “Competition with phage clone peptide SEQ ID NO: 236” value is “−” and the “Competition with phage clone peptide SEQ ID NO: 248 or 1051” value is on record as “−”. Moreover, in the assay with IL-2Rγc subunit, the “Competition with phage clone peptide SEQ ID NO: 266” value is given as “−” and the “Competition with phage clone peptide SEQ ID NO: 948” value is on record as “+ (Peptide competes with phage binding.)”.

For the substance 948 (SLLKCYNASTCASVF) [compound 948], the “competition for binding to the binding site of the IL-2Rγc subunit with the group of IL-2Rγc ligands” value with IL-2Rγc subunit was “does not compete”.

Regarding 1041 (WESWNVGDLVNLVNW) [compound 1041], in assay [1], the “competition for binding … of IL-2Rβ ligands” value is given as “does not compete”.

For 1042 (CYEVGDYCQSPL) [Peptide 1042], in assay [1], the “Competition with phage clone peptide SEQ ID NO: 58” value is “+ (Peptide competes with phage binding.)”, the “Competition with phage clone peptide SEQ ID NO: 170” value is “+ (Peptide competes with phage binding.)”, the “Competition with phage clone peptide SEQ ID NO: 83” value is on record as “+ (Peptide competes with phage binding.)” and the “Competition with phage clone peptide SEQ ID NO: 1034 or 1084” value is recorded as “+ (Peptide competes with phage binding.)”. In addition, the “Competition with phage clone peptide SEQ ID NO: 1044” value in assay [1] was “−”.

With 1044 (RSCYYKRPRLWCSE) [Peptide 1044], in assay [1], the “Competition with phage clone peptide SEQ ID NO: 58” value is reported as “−^2”, the “Competition with phage clone peptide SEQ ID NO: 170” value was “−”, the “Competition with phage clone peptide SEQ ID NO: 83” value is listed as “−” and the “Competition with phage clone peptide SEQ ID NO: 1034 or 1084” value is listed as “−”. In addition, the “Competition with phage clone peptide SEQ ID NO: 1044” value in assay [1] is reported as “+ (Peptide competes with phage binding.)”.

As to 1044 (RSCYYKRPRLWCSE) [compound 1044], in assay [1], the “competition for binding … of IL-2Rβ ligands” value is listed as “does not compete”.

Consider “Compound A: heterodimer of SEQ. ID. NO: 58 and SEQ ID. NO. 224 (chain 1 YDCRIAQVGELCDL; chain 2 DCSMWEGVELCW; cysteine pairing not given here; also: heterodimer)”, for which, in the assay on NK-92 cells, the “STAT5 phosphorylation (pSTAT5)” value was “induced”.

Consider “Compound B: heterodimer of SEQ. ID. NO: 58 and SEQ ID. NO. 237 (chain 1 YDCRIAQVGELCDL; chain 2 LCFSEFLGEWVDCN; cysteine pairing not given here; also: heterodimer)”, for which the “STAT5 phosphorylation (pSTAT5)” value in the assay with NK-92 cells is listed as “induced”.

On to “SEQ ID NO: 248 or 1051: IL-2Rγc family 3 test peptide, SEQ ID NO: 248 or its modified form SEQ ID NO: 1051 (DLSDLSTFWLSQ; not fully specified)”, for which, in the assay with IL-2Rγc subunit, the “Competition with phage clone peptide SEQ ID NO: 198” value is listed as “+ (Peptide competes with phage binding.)”, the “Competition with phage clone peptide SEQ ID NO: 224” value was “+ (Peptide competes with phage binding.)”, the “Competition with phage clone peptide SEQ ID NO: 236” value is on record as “+ (Peptide competes with phage binding.)” and the “Competition with phage clone peptide SEQ ID NO: 248 or 1051” value is “+ (Peptide competes with phage binding.)”. Besides, in the assay with IL-2Rγc subunit, the “Competition with phage clone peptide SEQ ID NO: 266” value is recorded as “+ (Peptide competes with phage binding.)” and the “Competition with phage clone peptide SEQ ID NO: 948” value was “−”.
